Data as given in patent publication CN114349851A (SHANGHAI NAI BIOTECHNOLOGY CO LTD, dated 2022).

Columns and labels:
[1] = molecular target: T1, RBD-Fc (RBD与Fc的融合蛋白), 野生型RBD (SARS-CoV-2, UniProt P0DTC2 319-541); experiment: BLI (Octet RED96), His-tagged nanobody on Ni-NTA sensor, RBD-Fc as analyte
[2] = molecular target: T1, RBD-Fc (RBD与Fc的融合蛋白), 野生型RBD; experiment: competitive ELISA, nanobody titrated against RBD binding to coated ACE2
[3] = molecular target: T1, RBD-Fc (RBD与Fc的融合蛋白), 野生型RBD; experiment: BLI, compared with C5

Binder	Kd [1]	IC50 [2]	fold increase in affinity over C5 [3]
纳米抗体C5D2 (VHH) VHH: DVQLVESGGGSVQAGGSLRLSCAASGEYSQLRFLGWFRQAPGKEREGVAAGLGANEDGYYADSVKGRFTVSLDNAENTVYLQMNSLKPEDTALYYCAALVIFSHDGPEFLAQNYWGQGTQVTVSS	< 0.001 nM	28 nM	–
纳米抗体C5G2 (VHH) VHH: DVQLVESGGGSVQAGGSLRLSCAASGKFSHLVFLGWFRQAPGKEREGVAAGLGAYESGYYADSVKGRFTVSLDNAENTVYLQMNSLKPEDTALYYCAALVVLSRDNTEFIAHNYWGQGTQVTVSS	1.62 nM	88 nM	11 fold
